# Columns and labels:
# [1] = target: Urn8RA (Urinate Receptor isoform RA) expressed in CHO/G16 cells (Tribolium castaneum)
# [2] = target: Urn8RB (Urinate Receptor isoform RB) expressed in CHO/G16 cells (Tribolium castaneum)
substance,measurement,setting,value
"Tribolium castaneum diuretic hormone 37 (DH37), unlabeled (peptide)","bioluminescence response of CHO/G16 cells expressing Urn8RA, dose-response, EC50",[1],160 nM
same,"bioluminescence response of CHO/G16 cells expressing Urn8RB, dose-response, EC50",[2],450 nM
"Tribolium castaneum diuretic hormone 47 (DH47), unlabeled (peptide)","bioluminescence response of CHO/G16 cells expressing Urn8RA, dose-response, EC50",[1],380 nM
same,"bioluminescence response of CHO/G16 cells expressing Urn8RB, dose-response, EC50",[2],340 nM

# — doi:10.1101/2020.11.19.389874
